We go through four molecules from patent US20020051988A1 (TRUSTEES OF BOSTON UNIVERSITY, published 2002).

Where no end group is shown, it is not given here.

Assay [1] has as its target p75 nerve growth factor receptor (p75^NTR) on cultured normal human melanocytes (human) (UniProt P08138). The assay is described as follows: cell-based or functional assay.
Assay [2] deals with p75 nerve growth factor receptor (p75^NTR) overexpressed on permanently transfected NIH 3T3 fibroblasts (Homo sapiens (Human)) (UniProt P08138). The assay is described as follows: cell-based or functional assay.
The target is the same in assay [3]. The assay is described as follows: competition with ^125I β-amyloid 1-40 on p75^NTR-NIH 3T3 cells, 2 h at 4 C, NGF 0-100 ng/ml; value at 100 ng/ml NGF.
Assay [4] addresses T1, p75 nerve growth factor receptor (p75^NTR) overexpressed on permanently transfected NIH 3T3 fibroblasts (Homo sapiens (Human), UniProt P08138 29-427).
T1 construct: also called 75 kD neurotrophin receptor
T1 sequence: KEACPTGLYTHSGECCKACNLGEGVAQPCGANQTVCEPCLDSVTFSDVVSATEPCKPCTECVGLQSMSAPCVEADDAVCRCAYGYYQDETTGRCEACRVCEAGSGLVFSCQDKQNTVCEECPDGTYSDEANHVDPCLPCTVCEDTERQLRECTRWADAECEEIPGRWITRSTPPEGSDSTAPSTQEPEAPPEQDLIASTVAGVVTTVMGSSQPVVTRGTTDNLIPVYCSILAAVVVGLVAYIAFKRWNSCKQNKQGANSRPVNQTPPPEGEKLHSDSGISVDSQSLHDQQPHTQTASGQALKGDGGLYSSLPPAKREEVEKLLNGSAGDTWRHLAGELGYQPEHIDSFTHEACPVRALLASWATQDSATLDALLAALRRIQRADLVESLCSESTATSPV
The assay is described as follows: displacement of ^125I β-amyloid 1-40 from p75^NTR 3T3 cells, 4 h at 4 C, peptide 0-400 nM.

In assay [1], “β-amyloid 25-35 peptide (from UniProt P05067 696-706)” returned a Bax induction of 3 fold and a Bax level as compared to the 40-1 peptide of 160%.
“β-amyloid 1-40 peptide (from UniProt P05067 1-40)” registered a decrease in cell yield in assay [2] of 60%. In assay [1], this molecule had a Bax induction of 3 fold, a Bax level as compared to the 40-1 peptide of 270%, a decrease in cell yield of 59% and a decrease in melanocyte yield greater than 50%.
Nerve growth factor (NGF) (ligand): the maximum % inhibition of ^125I labeled β-amyloid binding in assay [3] was determined as 38%.

B1: cyclic peptide CVGSNKGAIC (SEQ ID NO: 4) (peptide)
peptide: CVGSNKGAIC
modifications: also: cyclic peptide, ring closure not given here
notes: also called cyclic decapeptide; cold peptide
Consider B1, for which the IC50 (usually the concentration needed to halve the response being measured) in assay [4] was 25 nM.
